Target: H3HK68 full length hemagglutinin WT trimer (A/Hong Kong/1/1968(H3N2)) (Influenza A virus A/Hong …, UniProt Q91MA7)
Experiment: BLI

Chain of H3HK68 full length hemagglutinin WT trimer (A/Hong Kong/1/1968(H3N2)) (Q91MA7 17-566, one chain of several): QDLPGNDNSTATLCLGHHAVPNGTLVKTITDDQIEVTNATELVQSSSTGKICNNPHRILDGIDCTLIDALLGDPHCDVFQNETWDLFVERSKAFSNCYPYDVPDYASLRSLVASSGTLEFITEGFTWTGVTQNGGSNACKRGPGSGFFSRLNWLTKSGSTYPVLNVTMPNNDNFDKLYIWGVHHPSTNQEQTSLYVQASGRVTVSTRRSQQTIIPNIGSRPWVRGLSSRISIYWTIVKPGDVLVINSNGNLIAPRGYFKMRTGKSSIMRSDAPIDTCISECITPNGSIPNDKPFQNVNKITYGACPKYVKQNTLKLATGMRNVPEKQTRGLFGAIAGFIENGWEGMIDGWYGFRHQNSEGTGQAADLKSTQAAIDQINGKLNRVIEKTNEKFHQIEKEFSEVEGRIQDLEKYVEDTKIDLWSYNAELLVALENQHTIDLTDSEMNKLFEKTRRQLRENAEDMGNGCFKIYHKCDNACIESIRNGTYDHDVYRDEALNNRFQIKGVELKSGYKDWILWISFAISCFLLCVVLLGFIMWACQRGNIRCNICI

B1: F045-92 IgG (H3 RBS-specific antibody) (antibody, V domains shown)
VH: EVQLVESGAEVKKPGSSVKVSCRASGTFYKYAINWVRQAPGQGLEWMGGIIPFFGTTNYAQKFQGRLTITADGSTNTAYMQLDSLRSEDTAVYYCAGPSITESHYCLDCAAKDYYYGLDVWGQGTTVTVSS
VL: not shown
In the case of B1, the Kd is reported as 0.01 µM.

From publication PMC11870435 (2025)
